Test results reported in patent US20190169305A1 (TEIKYO HEISEI UNIVERSITY, published 2019).

Legend:
[1] = target: T1, human TRAIL-R2:alpaca Fc (hTRAIL-R2:Fc) (human; Lama pacos (alpaca)); assay: SPR, Biacore X-100, multi-cycle kinetics, 4E6 monomer as analyte (0.919-117.6 nM)
T1 construct: also called hTRAIL-R2:Fc antigen; recombinant human TRAIL-R2:Fc antigen
T1 chain: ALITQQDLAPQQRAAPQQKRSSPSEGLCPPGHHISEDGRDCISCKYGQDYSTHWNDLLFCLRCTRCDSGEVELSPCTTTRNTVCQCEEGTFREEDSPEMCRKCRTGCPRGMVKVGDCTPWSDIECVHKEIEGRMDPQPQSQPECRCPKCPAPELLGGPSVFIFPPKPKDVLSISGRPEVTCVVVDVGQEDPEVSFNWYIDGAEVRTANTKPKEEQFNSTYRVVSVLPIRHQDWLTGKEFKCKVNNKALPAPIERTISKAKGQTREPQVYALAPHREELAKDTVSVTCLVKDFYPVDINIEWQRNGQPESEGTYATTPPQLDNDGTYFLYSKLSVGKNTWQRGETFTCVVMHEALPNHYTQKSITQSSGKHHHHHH

[2] = target: T2, human TRAIL-R1:alpaca Fc (hTRAIL-R1:Fc) (human; Lama pacos (alpaca)); assay: ELISA, antigens coated at 1 µg/ml, VHH monomer at 10 µg/ml, absorbance 450 nm
T2 construct: also called hTRAIL-R1:Fc antigen; recombinant human TRAIL-R1 ECD
T2 chain: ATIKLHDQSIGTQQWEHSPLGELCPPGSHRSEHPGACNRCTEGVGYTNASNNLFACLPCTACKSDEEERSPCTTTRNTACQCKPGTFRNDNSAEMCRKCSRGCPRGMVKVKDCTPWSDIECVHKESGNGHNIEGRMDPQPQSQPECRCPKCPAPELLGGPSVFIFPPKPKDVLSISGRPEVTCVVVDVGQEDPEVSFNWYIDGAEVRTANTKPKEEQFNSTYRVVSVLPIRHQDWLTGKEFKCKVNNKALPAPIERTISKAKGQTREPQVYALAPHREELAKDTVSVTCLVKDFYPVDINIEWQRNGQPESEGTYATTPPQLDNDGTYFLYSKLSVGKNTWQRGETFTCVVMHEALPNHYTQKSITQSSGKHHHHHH

[3] = target: T3, mouse TRAIL-R2:alpaca Fc (mTRAIL-R2:Fc) (mouse; Lama pacos (alpaca), UniProt Q9QZM4 52-177); assay: as above
T3 construct: range 52-177;range 102-335; also called mTRAIL (mouse TRAIL)-R2:Fc
T3 sequence: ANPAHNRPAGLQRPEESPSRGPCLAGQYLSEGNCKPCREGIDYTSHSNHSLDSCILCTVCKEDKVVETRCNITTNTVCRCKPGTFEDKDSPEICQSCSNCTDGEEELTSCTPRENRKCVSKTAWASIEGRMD

[4] = target: T4, bovine serum albumin (bovine, UniProt P02769 25-607); assay: ELISA, BSA coated at 1 or 10 µg/ml, 4E6 monomer at 1 µg/ml, detected with anti-Myc 9E10 and anti-mouse IgG HRP, OD450
T4 construct: also called BSA; BSA negative antigen
T4 sequence (P02769 25-607 limits assumed): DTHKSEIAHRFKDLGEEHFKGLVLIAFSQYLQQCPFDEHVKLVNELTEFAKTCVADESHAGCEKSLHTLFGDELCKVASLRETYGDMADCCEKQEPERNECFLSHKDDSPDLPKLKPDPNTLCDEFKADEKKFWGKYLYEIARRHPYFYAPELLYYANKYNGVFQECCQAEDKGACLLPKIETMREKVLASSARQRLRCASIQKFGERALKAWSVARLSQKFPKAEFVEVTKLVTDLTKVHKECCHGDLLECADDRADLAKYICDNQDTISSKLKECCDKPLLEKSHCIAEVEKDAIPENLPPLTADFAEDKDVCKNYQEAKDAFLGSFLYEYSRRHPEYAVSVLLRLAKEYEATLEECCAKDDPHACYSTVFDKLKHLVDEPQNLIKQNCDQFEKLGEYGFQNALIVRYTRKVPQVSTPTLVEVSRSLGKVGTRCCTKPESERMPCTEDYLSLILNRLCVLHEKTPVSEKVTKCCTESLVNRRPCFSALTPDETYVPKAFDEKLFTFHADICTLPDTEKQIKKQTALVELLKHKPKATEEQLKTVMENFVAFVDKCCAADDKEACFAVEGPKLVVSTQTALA

B1: 4E6 monomer (anti-hTRAIL-R2 VHH antibody/Myc-Tag, expressed in E. coli) (VHH)
VHH: EVQLVESGGGSVQAGDSLRLSCAASGRTFGSIRVGWFRQTPGKEREFVAAINRNDGTTYYADSVKGRFTISRDNAKNTVYMQMASLKPEDTAVYYCAAGLQYNRSADRVPVGAVYWGQGTQVTVSS
notes: also called 4E6 VHH monomer; 4E6 monomeric protein
[1]
  Kd: 0.075 nM
[2]
  binding result: no binding (tested: 10 µg/ml)
[3]
  binding result: no binding (tested: 10 µg/ml)
[4]
  binding result: no binding (tested: 1 µg/ml)
